# Results from patent publication US20240158480A1 (ACADEMY OF MILITARY MEDICAL SCIENCE PLA, published 2024).
# T1: NiV-MY G (Nipah virus, Malaysia strain (NiV-MY), UniProt Q9IH62 71-602)
# T1 sequence: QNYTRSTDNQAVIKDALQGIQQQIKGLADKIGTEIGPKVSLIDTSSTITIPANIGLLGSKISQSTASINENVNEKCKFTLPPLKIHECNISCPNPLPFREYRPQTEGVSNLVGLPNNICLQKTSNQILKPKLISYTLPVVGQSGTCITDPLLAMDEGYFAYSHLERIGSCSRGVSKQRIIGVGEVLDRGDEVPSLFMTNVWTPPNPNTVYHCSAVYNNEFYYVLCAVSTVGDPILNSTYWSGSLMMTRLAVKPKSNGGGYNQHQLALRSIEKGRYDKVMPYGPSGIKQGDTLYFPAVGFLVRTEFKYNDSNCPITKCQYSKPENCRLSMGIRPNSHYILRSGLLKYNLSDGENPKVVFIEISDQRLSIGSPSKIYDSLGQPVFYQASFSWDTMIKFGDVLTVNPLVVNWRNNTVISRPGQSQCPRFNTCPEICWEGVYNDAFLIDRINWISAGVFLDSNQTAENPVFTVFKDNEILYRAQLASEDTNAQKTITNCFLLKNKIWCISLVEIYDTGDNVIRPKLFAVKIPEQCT
# Tests used:
# [1] = target: NiV-BD G (Nipah virus, Bangladesh strain (NiV-BD)); assay: ELISA, G protein coated at 1 µg/mL, antibody titrated 1:3 from 20 µg/mL
# [2] = target: NiV-BD G (Nipah virus, Bangladesh strain (NiV-BD)); assay: cell-based or functional assay
# NiV-MY G [3] = target: T1, NiV-MY G; assay: cell-based or functional assay
# NiV-MY G [4] = target: T1, NiV-MY G; assay: ELISA, G protein coated at 1 µg/mL, antibody titrated 1:3 from 20 µg/mL
Binder,EC50 [1] [µg/mL],"neutralization of HIV-NiV-BD pseudovirus (luciferase, 293T cells) [2] [%]","half inhibiting concentration (IC50), NiV-MY pseudovirus neutralization (NiV-MY G [3]) [µg/mL]",EC50 (NiV-MY G [4]) [µg/mL]
"1A9 (antibody, V domains shown) VH: VQLQESGPGLVKPSETLSLTCAVSGDSISTGYDWTWIRQPPGKGLEWIGYIGGSSGNTNYNPSLKSRVTISKDTSKNQFSLKLSSVTAADTAVYYCARDGTRVYYYGLDSWGQGVVVTVSS VL: ETVVTQEPSLSVSPGGTVTLTCGLSSGSVSTSNYPSWFQQTPGQAPRMLIYSTNIRPSGVPNRFSGSILGNKAALTITGAQADDESDYYCFFSMVSGTSVFGGGTRLTVLR",0.0183,–,–,–
"1F9 (antibody, V domains shown) VH: QVQLQESGPGLVKPSETLSLSCAVSGGSFSDYWWGWIRQSPGKGLEWIGSIYGSSGRTAYSPSLKSRATISRDTSKNQLFLRLTSVTAADTGVYYCTNERFYGDSNRFDVWGPGVLVTVSS VL: QPVLTQPTSLSASPGASARLTCTLSSGISVGNYRIFWYQQKPGSPPRYLLNYHTDSDKHQGSGVPSRFSGSKDASANAGILLISGLQSEDEADYYCMIWHNNVDVFGGGTKLTVLR",0.015,100,–,–
"1D11 (antibody, V domains shown, also called antibody 1D11; monoclonal antibody 1D11; copies: 2 + 2) VH: EVQLVESGGGLVQPGGSLRLSCAASGFTFSSYDMSWVRQAPGKGLEWVSSISSVTSYISYADSVKGRFTISRDNAKNSLSLQMNSLKTEDTAVYYCTTENWNFDFWGQGVLVTVSS VL: DVVMTQSPLSLATTPGQPASISCRSSQSLVHSNGNTYLSWYQQKPGQPPRLLIYEVSNRDSGVPDRFSGSGAGTDFTLKISRVEAEDVGVYYCGQGTHWPPFTFGPGTKLDIK",0.00991,100,0.0579,0.0202
"2B6 (antibody, V domains shown, also called antibody 2B6; monoclonal antibody 2B6; copies: 2 + 2) VH: QVQLVQSGAEVKKPGASVKLSCKASGYTFTSFYINWVRQAPGQVLEWMGWINPSNGDTGYAQKFQGRVTMSRDTSTSTAYMELSSLRSEDTAVYYCTRETVGSGTFDCWGQGVLVTVSS VL: DIVMTQTPLSLSVTLGEPASISCRSSQSLVYSAGKTYLDWYLQKPGQSPQLLIYLVSKRASGVPDKFSGSGSGTDFTLKISRVEAEDVGVYYCMQALRSPLTFGGGTKVELK",0.0054,100,0.0283,0.00956
